Substitutions are numbered along the chain they refer to.
B1: UGT76G1var67: UGT76G1 variant, mutations E224D_F314S_S375R_Y397E (protein, UniProt Q6VAB4 1-458, looked up, variant E224D F314S S375R Y397E)
UDP-glycosyltransferase 76G1: MENKTETTVRRRRRIILFPVPFQGHINPILQLANVLYSKGFSITIFHTNFNKPKTSNYPHFTFRFILDNDPQDERISNLPTHGPLAGMRIPIINEHGADELRRELELLMLASEEDEEVSCLITDALWYFAQSVADSLNLRRLVLMTSSLFNFHAHVSLPQFDELGYLDPDDKTRLEEQASGFPMLKVKDIKSAYSNWQILKEILGKMIKQTKASSGVIWNSFKDLEESELETVIREIPAPSFLIPLPKHLTASSSSLLDHDRTVFQWLDQQPPSSVLYVSFGSTSEVDEKDFLEIARGLVDSKQSFLWVVRPGSVKGSTWVEPLPDGFLGERGRIVKWVPQQEVLAHGAIGAFWTHSGWNSTLESVCEGVPMIFRDFGLDQPLNARYMSDVLKVGVELENGWERGEIANAIRRVMVDEEGEYIRQNARVLKQKADVSLMKGGSSYESLESLVSYISSL
B2: UGT76G1var86: UGT76G1 variant, mutations E224A_T284L_V396F_Y397E_I407V (protein, UniProt Q6VAB4 1-458, looked up, variant E224A T284L V396F Y397E I407V)
UDP-glycosyltransferase 76G1: B1 UDP-glycosyltransferase 76G1 with D224A, T284L, S314F, R375S, V396F, I407V
B3: UGT76G1var84: UGT76G1 variant, mutations F22L_Q266S_F314S_A352G_S357C (protein, UniProt Q6VAB4 1-458, looked up, variant F22L Q266S F314S A352G S357C)
UDP-glycosyltransferase 76G1: B1 UDP-glycosyltransferase 76G1 with F22L, D224E, Q266S, A352G, S357C, R375S, E397Y
B4: UGT76G1var69: UGT76G1 variant, mutations S274G_I295T_I335V_L379A (protein, UniProt Q6VAB4 1-458, looked up, variant S274G I295T I335V L379A)
UDP-glycosyltransferase 76G1: B1 UDP-glycosyltransferase 76G1 with D224E, S274G, I295T, S314F, I335V, R375S, L379A, E397Y
B5: UGT76G1var73: UGT76G1 variant, mutations F22Y_D301N_R334H_Q342E_V396F (protein, UniProt Q6VAB4 1-458, looked up, variant F22Y D301N R334H Q342E V396F)
UDP-glycosyltransferase 76G1: B1 UDP-glycosyltransferase 76G1 with F22Y, D224E, D301N, S314F, R334H, Q342E, R375S, V396F, E397Y
B6: UGT76G1var82: UGT76G1 variant, mutations E224D_L243A_F265L_R334H_A352G (protein, UniProt Q6VAB4 1-458, looked up, variant E224D L243A F265L R334H A352G)
UDP-glycosyltransferase 76G1: B1 UDP-glycosyltransferase 76G1 with L243A, F265L, S314F, R334H, A352G, R375S, E397Y
B7: UGT76G1var74: UGT76G1 variant, mutations I295T_I373L_S375R_Y397Q_Q432E (protein, UniProt Q6VAB4 1-458, looked up, variant I295T I373L S375R Y397Q Q432E)
UDP-glycosyltransferase 76G1: B1 UDP-glycosyltransferase 76G1 with D224E, I295T, S314F, I373L, E397Q, Q432E
B8: UGT76G1var91: UGT76G1 variant, mutations E224A_L246F_T263S_F265I_Q342K (protein, UniProt Q6VAB4 1-458, looked up, variant E224A L246F T263S F265I Q342K)
UDP-glycosyltransferase 76G1: B1 UDP-glycosyltransferase 76G1 with D224A, L246F, T263S, F265I, S314F, Q342K, R375S, E397Y
B9: UGT76G1var71: UGT76G1 variant, mutations I295M_V300A_K393G_Q432E (protein, UniProt Q6VAB4 1-458, looked up, variant I295M V300A K393G Q432E)
UDP-glycosyltransferase 76G1: B1 UDP-glycosyltransferase 76G1 with D224E, I295M, V300A, S314F, R375S, K393G, E397Y, Q432E
B10: UGT76G1var75: UGT76G1 variant, mutations F41L_A239I_Q266S_S375M_P382M (protein, UniProt Q6VAB4 1-458, looked up, variant F41L A239I Q266S S375M P382M)
UDP-glycosyltransferase 76G1: B1 UDP-glycosyltransferase 76G1 with F41L, D224E, A239I, Q266S, S314F, R375M, P382M, E397Y
B11: UGT76G1var68: UGT76G1 variant, mutations Q342K_G348P_I373L_Y397E (protein, UniProt Q6VAB4 1-458, looked up, variant Q342K G348P I373L Y397E)
UDP-glycosyltransferase 76G1: B1 UDP-glycosyltransferase 76G1 with D224E, S314F, Q342K, G348P, I373L, R375S
B12: UGT76G1var78: UGT76G1 variant, mutations V279I_V300A_V310I_I335V_S357C (protein, UniProt Q6VAB4 1-458, looked up, variant V279I V300A V310I I335V S357C)
UDP-glycosyltransferase 76G1: B1 UDP-glycosyltransferase 76G1 with D224E, V279I, V300A, V310I, S314F, I335V, S357C, R375S, E397Y
B13: UGT76G1var70: UGT76G1 variant, mutations E224A_I295T_V300A_G348P (protein, UniProt Q6VAB4 1-458, looked up, variant E224A I295T V300A G348P)
UDP-glycosyltransferase 76G1: B1 UDP-glycosyltransferase 76G1 with D224A, I295T, V300A, S314F, G348P, R375S, E397Y
B14: UGT76G1var90: UGT76G1 variant, mutations E231A_S241I_S274G_Y397Q_Q425E (protein, UniProt Q6VAB4 1-458, looked up, variant E231A S241I S274G Y397Q Q425E)
UDP-glycosyltransferase 76G1: B1 UDP-glycosyltransferase 76G1 with D224E, E231A, S241I, S274G, S314F, R375S, E397Q, Q425E

Assay: Directed evolution of UGT76G1, Rebaudioside D to Rebaudioside M, round 1 (Example 26)
Type: biochemical
Conditions: 100 μL fresh lysate, 0.5 mM Rebaudioside D, 30° C., pH 7.2
Procedure, shortened: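 Conversion and initial rate were determined by HPLC with CAD detection on samples taken at 2, 4, 7 and 24 h. Reactions ran at 30 °C in 50 mM phosphate buffer pH 7.2 with lysate, Rebaudioside D (0.5 mM), UDP-glucose (2.5 mM) and MgCl2 (3 mM).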

Which “conversion Reb D to Reb M after 24 h” value does the source give for B1 here?
The value was −2.1%.

What about the initial rate of the same molecule?
The initial rate was −5.6E+05 Reb M area/min.

Which “conversion Reb D to Reb M after 24 h” value does the source give for B2 here?
The value was 1.6%.

What about the initial rate of the same molecule?
The initial rate was 3.8E+05 Reb M area/min.

Which “conversion Reb D to Reb M after 24 h” value does the source give for B3 here?
Its value is 1.2%.

What about the initial rate of the same molecule?
Its initial rate is 2.3E+05 Reb M area/min.

For B4, which initial rate is on record?
Its initial rate is 8.3E+06 Reb M area/min.

For B5, which “conversion Reb D to Reb M after 24 h” value is on record?
Its value is 0.8%.

What about the initial rate of the same molecule?
The initial rate was 8.7E+05 Reb M area/min.

For B6, which “conversion Reb D to Reb M after 24 h” value is on record?
Its value is 1.1%.

And the initial rate?
Its initial rate is 2.5E+05 Reb M area/min.

Which results are given for B7?
conversion Reb D to Reb M after 24 h: 0.6%; initial rate: 9.6E+04 Reb M area/min

With B8 as the molecule, how does the “conversion Reb D to Reb M after 24 h” value read?
Its value is 1.2%.

And the initial rate?
Its initial rate is 2.3E+05 Reb M area/min.

For B9, which initial rate is on record?
The initial rate was 2.1E+07 Reb M area/min.

Which “conversion Reb D to Reb M after 24 h” value does the source give for B10 here?
The value was 0.8%.

What about the initial rate of the same molecule?
Its initial rate is −1.3E+05 Reb M area/min.

With B11 as the molecule, how does the “conversion Reb D to Reb M after 24 h” value read?
Its value is −1.4%.

What about the initial rate of the same molecule?
Its initial rate is −1.1E+05 Reb M area/min.

Which “conversion Reb D to Reb M after 24 h” value does the source give for B12 here?
The value was 3.2%.

And the initial rate?
The initial rate was 8.2E+05 Reb M area/min.

With B13 as the molecule, how does the “conversion Reb D to Reb M after 24 h” value read?
The value was 24.0%.

What about the initial rate of the same molecule?
The initial rate was 8.4E+06 Reb M area/min.

For B14, which initial rate is on record?
The initial rate was 1.9E+07 Reb M area/min.
